# According to US6132731, “Murine leukemia virus vectors” (Oxford Biomedica (UK) Limited, dated 2000):
# B1: hybrid ecotropic MLV envelope with FLA16 at site II (plasmid pHIT508) (other)
# chain: ASPGSSPHQVYNITWEVTNGDRETVWATSGNHPLWTWWPDLTPDLCMLAHHGPSYWGLEYQSPFSSPPGPPCCSGGSSPGCSRDCEEPLTSLTPRCNTAWNRLKLDQTTHKSNEGFYVCQGATFALRGDNPQGCGGPDSFYCAYWGCETTGRAYWKPSSSWDFITVNNNLTSDQAVQVCKDNKWCNPLVIRFTDAGRRVTSWTTGHYWGLRLYVSGQDPGLTFGIRLRYQNLGPRVPIGPNPVLADQQPLSKPKPVKSPSVTKPPSGTPLSPTQLPPAGTENRLLNLVDGAYQALNLTSPDKTQECWLCLVAGPPYYEGVAVLGTYSNHTSAPANCSVASQHKLTLSEVTGQGLCIGAVPKTHQALCNTTQTSSRGSYYLVAPTGTMWACSTGLTPCISTTILNLTTDYCVLVELWPRVTYHSPSYVYGLFERSNRHKREPVSLTLALLLGGLTMGGIAAGIGTGTTALMATQQFQQLQAAVQDDLREVEKSISNLEKSLTSLSEVVLQNRRGLDLLFLKEGGLCAALKEECCFYADHTGLVRDSMAKLRERLNQRQKLFESTQGWFEGLFNRSPWFTTLISTIMGPLIVLLMILLFGPCILNRLVQFVKDRISVVQALVLTQQYHQLKPIEYEP
# B2: hybrid ecotropic MLV envelope with the VCAM-1 sequence at site II (plasmid pHIT510) (other)
# chain: ASPGSSPHQVYNITWEVTNGDRETVWATSGNHPLWTWWPDLTPDLCMLAHHGPSYWGLEYQSPFSSPPGPPCCSGGSSPGCSRDCEEPLTSLTPRCNTAWNRLKLDQTTHKSNEGFYVCTIDSPLNCGGPDSFYCAYWGCETTGRAYWKPSSSWDFITVNNNLTSDQAVQVCKDNKWCNPLVIRFTDAGRRVTSWTTGHYWGLRLYVSGQDPGLTFGIRLRYQNLGPRVPIGPNPVLADQQPLSKPKPVKSPSVTKPPSGTPLSPTQLPPAGTENRLLNLVDGAYQALNLTSPDKTQECWLCLVAGPPYYEGVAVLGTYSNHTSAPANCSVASQHKLTLSEVTGQGLCIGAVPKTHQALCNTTQTSSRGSYYLVAPTGTMWACSTGLTPCISTTILNLTTDYCVLVELWPRVTYHSPSYVYGLFERSNRHKREPVSLTLALLLGGLTMGGIAAGIGTGTTALMATQQFQQLQAAVQDDLREVEKSISNLEKSLTSLSEVVLQNRRGLDLLFLKEGGLCAALKEECCFYADHTGLVRDSMAKLRERLNQRQKLFESTQGWFEGLFNRSPWFTTLISTIMGPLIVLLMILLFGPCILNRLVQFVKDRISVVQALVLTQQYHQLKPIEYEP
# What was measured:
# VLA4 receptor (human) = VLA4 receptor (human) (UniProt P13612)
# VLA5 receptor = VLA5 receptor (human, UniProt P08648); assay: cell-based or functional assay
# VLA3 receptor = VLA3 receptor (human, UniProt P26006); assay: cell-based or functional assay
# VLA4 receptor = VLA4 receptor (human, UniProt P13612); assay: cell-based or functional assay
molecule,measurement,setting,value
amphotropic MLV envelope (isolate 4070a) (plasmid pHIT456),viral titer of pHIT456 (amphotropic) virus on U937 cells in the presence of anti-VLA4 antibody,VLA4 receptor (human),40000 viral titer
B1,"viral titer on U937 cells (lacZ delivery, X-gal staining)",VLA5 receptor,150 viral titer
same,"viral titer on U937 cells (lacZ delivery, X-gal staining)",VLA3 receptor,150 viral titer
B2,"viral titer on U937 cells (lacZ delivery, X-gal staining)",VLA4 receptor,150 viral titer
